{"source": "patent US20260250398A1", "about": "(ANTLERA THERAPEUTICS, published 2026)", "binders": {"B1": {"name": "ANT-1 (LRP Diabody-Fc-FZD Fab; paratopes 2540, 2542; 5016) (bispecific antibody)", "heavy 1": "MNLLLILTFVAAAVAEFEVQLVESGGGLVQPGGSLRLSCAASGFNISSYYIHWVRQAPGKGLEWVASIYSSYGYTSYADSVKGRFTISADTSKNTAYLQMNSLRAEDTAVYYCARTVRGSKKPYFSGWAMDYWGQGTLVTVSSGGGGSDIQMTQSPSSLSASVGDRVTITCRASQSVSSAVAWYQQKPGKAPKLLIYSASSLYSGVPSRFSGSRSGTDFTLTISSLQPEDFATYYCQQYYFLITFGQGTKVEIKLEDKTHTKVEPKSSDKTHNCPPCPAPELLGGPSVFLFPPKPKDTLMISRTPEVTCVVVDVSHEDPEVKFNWYVDGVEVHNAKTKPREEQYNSTYRVVSVLTVLHQDWLNGKEYKCKVSNKALPAPIEKTISKAKGQPREPQVYTLPPIRELMTSNQVSLSCAVKGFYPSDIAVEWESNGQPENNYKTTPPVLDSDGSFFLVSKLTVDKSRWQQGNVFSCSVMHEALHNHYTQKSLSLSPGKSGSETPGTSESATPESGGGEVQLVESGGGLVQPGGSLRLSCAASGFNIHSSSIHWVRQAPGKGLEWVAATYSSFGSITYADSVKGRFTISADTSKNTAYLQMNSLRAEDTAVYYCARYHHPFGYALDYWGQGTLVTVSSASTKGPSVFPLAPSSKSTSGGTAALGCLVKDYFPEPVTVSWNSGALTSGVHTFPAVLQSSGLYSLSSVVTVPSSSLGTQTYICNVNHKPSNTKVDKKVEPKSCDKTHT", "heavy 2": "MNLLLILTFVAAAVAEFEVQLVESGGGLVQPGGSLRLSCAASGFNISYSSIHWVRQAPGKGLEWVASISPYYGYTYYADSVKGRFTISADTSKNTAYLQMNSLRAEDTAVYYCARSSYFPWFSAMDYWGQGTLVTVSSGGGGSDIQMTQSPSSLSASVGDRVTITCRASQSVSSAVAWYQQKPGKAPKLLIYSASSLYSGVPSRFSGSRSGTDFTLTISSLQPEDFATYYCQQYYWPITFGQGTKVEIKLEDKTHTKVEPKTSDKTHTCPPCPAPELLGGPSVFLFPPKPKDTLMISRTPEVTCVVVDVSHEDPEVKFNWYVDGVEVHNAKTKPREEQYNSTYRVVSVLTVLHQDWLNGKEYKCKVSNKALPAPIEKTISKAKGQPREPMVFDLPPSREEMTKNQVSLWCMVKGFYPSDIAVEWESNGQPENNYKTTPPVLDSDGSFFLYSKLTVDKSRWQQGNVFSCSVMHEALHNHYTQKSLSLSPGKSGSETPGTSESATPESGGGEVQLVESGGGLVQPGGSLRLSCAASGFNIHSSSIHWVRQAPGKGLEWVAATYSSFGSITYADSVKGRFTISADTSKNTAYLQMNSLRAEDTAVYYCARYHHPFGYALDYWGQGTLVTVSSASTKGPSVFPLAPSSKSTSGGTAALGCLVKDYFPEPVTVSWNSGALTSGVHTFPAVLQSSGLYSLSSVVTVPSSSLGTQTYICNVNHKPSNTKVDKKVEPKSCDKTHT", "light": "DIQMTQSPSSLSASVGDRVTITCRASQSVSSAVAWYQQKPGKAPKLLIYSASSLYSGVPSRFSGSRSGTDFTLTISSLQPEDFATYYCQQGVYLFTFGQGTKVEIKRTVAAPSVFIFPPSDEQLKSGTASVVCLLNNFYPREAKVQWKVDNALQSGNSQESVTEQDSKDSTYSLSSTLTLSKADYEKHKVYACEVTHQGLSSPVTKSFNRGEC"}}, "key": {"[1]": {"molecular_target": "T1, LRP6 (low-density lipoprotein receptor-related protein 6) (UniProt O75581 20-1370, limits assumed)", "T1 sequence (looked up)": "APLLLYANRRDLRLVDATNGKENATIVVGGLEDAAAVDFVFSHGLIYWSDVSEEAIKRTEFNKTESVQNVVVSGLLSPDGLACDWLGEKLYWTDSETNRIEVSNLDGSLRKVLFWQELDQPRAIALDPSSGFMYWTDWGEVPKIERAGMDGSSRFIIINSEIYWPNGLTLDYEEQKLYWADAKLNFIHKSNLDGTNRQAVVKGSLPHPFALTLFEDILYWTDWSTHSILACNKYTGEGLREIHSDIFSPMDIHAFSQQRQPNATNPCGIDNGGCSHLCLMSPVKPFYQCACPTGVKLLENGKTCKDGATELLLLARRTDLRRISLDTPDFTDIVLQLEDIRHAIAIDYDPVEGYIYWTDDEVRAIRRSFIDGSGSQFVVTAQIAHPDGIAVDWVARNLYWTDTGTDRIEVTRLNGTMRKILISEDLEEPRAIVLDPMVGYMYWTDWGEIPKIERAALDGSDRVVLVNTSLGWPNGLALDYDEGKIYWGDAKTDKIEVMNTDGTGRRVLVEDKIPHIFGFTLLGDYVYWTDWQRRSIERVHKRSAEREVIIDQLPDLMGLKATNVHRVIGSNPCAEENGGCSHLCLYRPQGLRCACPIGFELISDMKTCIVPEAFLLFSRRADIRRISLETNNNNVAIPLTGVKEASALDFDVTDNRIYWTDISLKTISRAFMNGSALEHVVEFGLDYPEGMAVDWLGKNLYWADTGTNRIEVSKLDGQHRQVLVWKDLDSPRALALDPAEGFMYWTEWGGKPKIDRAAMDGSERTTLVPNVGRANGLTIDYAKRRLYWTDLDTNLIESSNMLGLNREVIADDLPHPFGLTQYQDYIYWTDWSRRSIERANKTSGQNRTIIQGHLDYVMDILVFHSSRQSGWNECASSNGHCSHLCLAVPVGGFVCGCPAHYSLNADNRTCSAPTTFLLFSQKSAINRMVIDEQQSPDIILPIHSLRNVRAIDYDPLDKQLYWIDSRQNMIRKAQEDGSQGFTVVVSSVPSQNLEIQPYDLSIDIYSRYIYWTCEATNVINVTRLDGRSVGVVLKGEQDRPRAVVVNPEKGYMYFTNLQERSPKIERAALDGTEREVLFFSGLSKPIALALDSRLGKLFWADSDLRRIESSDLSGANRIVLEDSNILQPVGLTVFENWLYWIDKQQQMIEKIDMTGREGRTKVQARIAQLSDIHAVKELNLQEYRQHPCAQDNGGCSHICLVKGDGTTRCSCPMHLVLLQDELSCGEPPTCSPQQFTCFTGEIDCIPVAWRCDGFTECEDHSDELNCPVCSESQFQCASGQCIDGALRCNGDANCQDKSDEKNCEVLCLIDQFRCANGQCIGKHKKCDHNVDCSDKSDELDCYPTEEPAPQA", "assay": "cell-based or functional assay"}, "[2]": {"molecular_target": "T1, LRP6 (low-density lipoprotein …)", "assay": "cell-based or functional assay", "remark": "listed apart in the source"}}}
{"binder": "B1", "values": [{"measurement": "TOPFLASH % Wnt Maxima", "setting": "[1]", "result": 49, "unit": "% Wnt Maxima"}, {"measurement": "TOPFLASH Maximal Signal (% Wnt3a maxima)", "setting": "[2]", "result": 50, "unit": "% Wnt3a maxima"}]}
